Test results: patent EP2085478A1

Target: XKVLQT1 (Xenopus KVLQT1 homologue, 1.6 kb partial clone) (Xenopus) (UniProt P70057)
Assay: cell-based or functional assay

UniProt P70057, sequence (P70057 other isoform, or with tags, fused parts or gaps): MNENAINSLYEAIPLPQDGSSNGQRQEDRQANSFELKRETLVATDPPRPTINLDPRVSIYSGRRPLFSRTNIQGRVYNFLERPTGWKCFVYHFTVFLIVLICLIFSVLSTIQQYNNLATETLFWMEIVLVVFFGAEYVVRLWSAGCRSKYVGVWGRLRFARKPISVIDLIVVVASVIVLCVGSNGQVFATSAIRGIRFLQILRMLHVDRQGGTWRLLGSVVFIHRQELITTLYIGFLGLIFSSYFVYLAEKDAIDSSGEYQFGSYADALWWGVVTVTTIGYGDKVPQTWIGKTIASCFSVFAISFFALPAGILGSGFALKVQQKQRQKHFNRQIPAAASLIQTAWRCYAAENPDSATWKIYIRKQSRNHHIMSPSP

For human minK (from UniProt P15382 1-129), the IsK at +40 mV, oocytes injected with 60 pg hminK cRNA was 2.11 µA, the IsK at +40 mV, oocytes injected with 1 ng hminK cRNA was 2.2 µA and the V½ of the normalized isochronal activation curve, oocytes injected with hminK was 2.4 mV.
